Experiments:
[1] = biological target: T1, Rat EphA2 (ligand binding), C-terminal polyHis (Rat); test: FP competition vs Reference Compound C (Study 2)
T1 construct: In-house

Mouse EphA2 (Ecto) = biological target: T2, Mouse EphA2 (Ecto) (Mouse, UniProt Q03145 26-538); test: FP competition vs Reference Compound C (Study 2)
T2 construct: extracellular domain; Fluorescence polarisation assays; not shown: Fc fusion (R&D Systems 639-A2) or C-terminal polyHis (Sino Biological 50586-M08H)

[2] = biological target: T3, Human EphA2 (Ecto), C-terminal polyHis (Human, UniProt P29317 24-537); test: FP competition vs Reference Compound C (Study 2)
T3 construct: extracellular domain; R&D systems 3035-A2 or in-house

Human EphA3 Fc fusion = biological target: T4, Human EphA3 Fc fusion (Human, UniProt P29320 21-541, limits assumed); test: SPR, Fc-tagged protein captured by anti-human IgG
T4 construct: Bought Fc fusion; also called R&D Systems 6444-A3; not shown: Fc of the bought fusion
T4 sequence (looked up): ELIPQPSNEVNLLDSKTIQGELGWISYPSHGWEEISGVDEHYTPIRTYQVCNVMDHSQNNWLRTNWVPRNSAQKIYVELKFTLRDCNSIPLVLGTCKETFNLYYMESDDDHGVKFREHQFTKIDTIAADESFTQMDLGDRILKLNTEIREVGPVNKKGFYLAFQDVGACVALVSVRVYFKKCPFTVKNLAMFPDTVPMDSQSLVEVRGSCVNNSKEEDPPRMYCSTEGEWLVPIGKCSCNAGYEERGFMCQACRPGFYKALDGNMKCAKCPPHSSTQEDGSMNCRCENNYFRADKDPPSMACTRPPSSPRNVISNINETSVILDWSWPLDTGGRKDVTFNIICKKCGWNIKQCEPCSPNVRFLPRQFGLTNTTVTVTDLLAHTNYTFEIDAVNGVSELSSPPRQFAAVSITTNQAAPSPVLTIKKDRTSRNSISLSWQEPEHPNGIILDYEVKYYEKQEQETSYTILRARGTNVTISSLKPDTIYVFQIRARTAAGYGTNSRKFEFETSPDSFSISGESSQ

Human EphA1 Fc fusion = biological target: T5, Human EphA1 Fc fusion (Human, UniProt P21709 26-547); test: SPR, Fc-tagged protein captured by anti-human IgG
T5 construct: Bought Fc fusion; also called Sino Biologics 15789-H02H; not shown: Fc of the bought fusion
T5 sequence (looked up): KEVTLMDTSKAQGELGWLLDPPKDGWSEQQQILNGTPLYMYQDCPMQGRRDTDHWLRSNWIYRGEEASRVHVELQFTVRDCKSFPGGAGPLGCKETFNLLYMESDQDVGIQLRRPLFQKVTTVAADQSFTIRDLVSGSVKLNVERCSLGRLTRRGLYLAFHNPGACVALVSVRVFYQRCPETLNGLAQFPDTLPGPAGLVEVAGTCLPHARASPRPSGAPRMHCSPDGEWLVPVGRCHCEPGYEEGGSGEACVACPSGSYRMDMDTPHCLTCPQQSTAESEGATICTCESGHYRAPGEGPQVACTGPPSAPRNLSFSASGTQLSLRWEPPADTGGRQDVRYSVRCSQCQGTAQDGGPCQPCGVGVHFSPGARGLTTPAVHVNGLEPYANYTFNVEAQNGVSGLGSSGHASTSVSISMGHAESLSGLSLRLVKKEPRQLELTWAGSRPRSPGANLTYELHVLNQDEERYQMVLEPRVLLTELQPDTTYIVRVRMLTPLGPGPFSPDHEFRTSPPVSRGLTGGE

Mouse EphA3 Fc fusion = biological target: T6, Mouse EphA3 Fc fusion (Mouse, UniProt P29319 21-540); test: SPR, Fc-tagged protein captured by anti-human IgG
T6 construct: Bought Fc fusion; also called Sino Biologics 51122-M02H; not shown: Fc of the bought fusion
T6 sequence (looked up): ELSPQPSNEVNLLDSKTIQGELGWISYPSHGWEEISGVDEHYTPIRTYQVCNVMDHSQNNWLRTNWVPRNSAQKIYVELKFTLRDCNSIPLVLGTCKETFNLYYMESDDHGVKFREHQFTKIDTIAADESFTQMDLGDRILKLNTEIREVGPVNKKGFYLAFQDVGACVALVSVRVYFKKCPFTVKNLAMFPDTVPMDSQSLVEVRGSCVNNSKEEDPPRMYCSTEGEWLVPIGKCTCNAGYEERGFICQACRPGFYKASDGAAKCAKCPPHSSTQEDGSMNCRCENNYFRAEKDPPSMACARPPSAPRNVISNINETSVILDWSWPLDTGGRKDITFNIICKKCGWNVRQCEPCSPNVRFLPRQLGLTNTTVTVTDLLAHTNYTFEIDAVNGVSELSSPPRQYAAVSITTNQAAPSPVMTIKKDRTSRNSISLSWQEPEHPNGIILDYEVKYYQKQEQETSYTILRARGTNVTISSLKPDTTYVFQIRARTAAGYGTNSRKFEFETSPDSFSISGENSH

Rat EphB1 Fc fusion = biological target: T7, Rat EphB1 Fc fusion (Rat, UniProt P09759 18-540, limits assumed); test: SPR, Fc-tagged protein captured by anti-human IgG
T7 construct: Bought Fc fusion; also called R&D Systems 1596-B1; not shown: Fc of the bought fusion
T7 sequence (looked up): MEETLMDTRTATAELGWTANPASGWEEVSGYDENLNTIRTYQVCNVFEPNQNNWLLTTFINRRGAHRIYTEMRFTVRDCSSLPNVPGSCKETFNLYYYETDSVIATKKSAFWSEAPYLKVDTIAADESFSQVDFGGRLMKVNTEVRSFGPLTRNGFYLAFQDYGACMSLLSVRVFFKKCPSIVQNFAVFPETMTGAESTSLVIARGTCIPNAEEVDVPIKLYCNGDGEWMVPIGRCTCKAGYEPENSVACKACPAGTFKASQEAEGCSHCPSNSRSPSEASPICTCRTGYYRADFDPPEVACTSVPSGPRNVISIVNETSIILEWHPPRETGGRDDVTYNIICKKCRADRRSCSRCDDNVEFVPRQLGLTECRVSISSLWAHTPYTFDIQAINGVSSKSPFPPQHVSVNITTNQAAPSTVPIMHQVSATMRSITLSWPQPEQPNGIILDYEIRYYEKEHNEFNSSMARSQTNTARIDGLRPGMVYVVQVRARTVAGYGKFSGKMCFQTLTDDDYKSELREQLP

Mouse EphA4 Fc fusion = biological target: T8, Mouse EphA4 Fc fusion (Mouse, UniProt Q03137 20-547); test: SPR, Fc-tagged protein captured by anti-human IgG
T8 construct: Bought Fc fusion; also called Sino Biologics 50575-M02H; not shown: Fc of the bought fusion
T8 sequence (Q03137 20-547 limits assumed): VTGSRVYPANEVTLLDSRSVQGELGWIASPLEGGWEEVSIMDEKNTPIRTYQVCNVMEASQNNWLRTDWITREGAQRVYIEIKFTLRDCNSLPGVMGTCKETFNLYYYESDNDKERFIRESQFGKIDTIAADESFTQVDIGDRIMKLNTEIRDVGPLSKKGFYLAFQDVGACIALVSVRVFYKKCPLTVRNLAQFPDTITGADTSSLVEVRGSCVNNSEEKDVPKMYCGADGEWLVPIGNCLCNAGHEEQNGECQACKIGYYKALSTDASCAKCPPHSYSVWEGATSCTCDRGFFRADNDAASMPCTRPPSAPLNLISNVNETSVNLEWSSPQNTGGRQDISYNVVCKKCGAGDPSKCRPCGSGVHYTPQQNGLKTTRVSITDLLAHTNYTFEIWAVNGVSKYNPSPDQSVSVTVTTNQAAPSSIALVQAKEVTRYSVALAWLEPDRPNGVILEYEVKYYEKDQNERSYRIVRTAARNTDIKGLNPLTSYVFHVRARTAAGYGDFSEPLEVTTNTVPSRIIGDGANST

T3 sequence (P29317 24-537): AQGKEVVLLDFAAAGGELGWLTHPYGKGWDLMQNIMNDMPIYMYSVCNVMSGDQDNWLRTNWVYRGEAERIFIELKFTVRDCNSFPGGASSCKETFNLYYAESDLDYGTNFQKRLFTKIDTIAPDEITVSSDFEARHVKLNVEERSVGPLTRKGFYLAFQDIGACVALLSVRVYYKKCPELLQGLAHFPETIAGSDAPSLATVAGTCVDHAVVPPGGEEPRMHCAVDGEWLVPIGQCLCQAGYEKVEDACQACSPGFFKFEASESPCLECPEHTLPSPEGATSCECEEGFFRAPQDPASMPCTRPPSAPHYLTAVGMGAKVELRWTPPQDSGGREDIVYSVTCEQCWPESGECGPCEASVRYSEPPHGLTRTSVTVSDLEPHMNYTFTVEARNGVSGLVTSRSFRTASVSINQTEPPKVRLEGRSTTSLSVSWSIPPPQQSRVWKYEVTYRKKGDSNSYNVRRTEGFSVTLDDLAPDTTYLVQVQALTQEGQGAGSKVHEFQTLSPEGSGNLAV
T2 sequence (Q03145 26-538): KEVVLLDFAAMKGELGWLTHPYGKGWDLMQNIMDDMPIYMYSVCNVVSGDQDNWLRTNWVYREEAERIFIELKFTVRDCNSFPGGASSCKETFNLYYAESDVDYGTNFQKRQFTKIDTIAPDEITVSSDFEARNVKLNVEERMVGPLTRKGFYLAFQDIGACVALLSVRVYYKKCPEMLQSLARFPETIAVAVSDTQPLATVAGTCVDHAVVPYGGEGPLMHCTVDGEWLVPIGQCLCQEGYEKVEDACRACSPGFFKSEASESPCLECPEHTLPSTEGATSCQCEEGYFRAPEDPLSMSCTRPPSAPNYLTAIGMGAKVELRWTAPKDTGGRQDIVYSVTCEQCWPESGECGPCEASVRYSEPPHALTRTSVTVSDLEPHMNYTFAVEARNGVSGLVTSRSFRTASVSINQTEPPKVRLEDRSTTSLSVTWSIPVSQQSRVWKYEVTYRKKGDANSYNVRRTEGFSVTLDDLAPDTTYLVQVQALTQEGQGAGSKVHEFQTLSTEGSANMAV

B1: BCY6033 (peptide)
peptide: AXDCPLVNPLCLHPGWTC
modifications: not fully specified; as BCY6014 (N-terminal (β-Ala)-Sar10; HArg; TATA scaffold on the 3 Cys) + ValCit-MMAE
notes: Bicycle drug conjugate (BDC)
B1 showed a Ki [1] of 13.4 nM, a Ki (Mouse EphA2 (Ecto)) of 34.2 nM and a Ki [2] of 9.9 nM.

B2: BCY6082 (peptide)
peptide: AXDCPLVNPLCLHPGWTC
modifications: not fully specified; as BCY6014 (N-terminal (β-Ala)-Sar10; HArg; TATA scaffold on the 3 Cys) + DM1-SS(SO3H)-
notes: Bicycle drug conjugate (BDC)
With B2 the Ki [1] was 13.9 nM, the Ki (Mouse EphA2 (Ecto)) was 34.1 nM and the Ki [2] was 10.5 nM.

B3: BCY6033 (peptide)
peptide: AXDCPLVNPLCLHPGWTC
modifications: not fully specified; N-terminal (β-Ala)-Sar10 spacer precedes SEQ ID NO: 11; HArg (homoarginine) at residue 2 of SEQ ID NO: 11; three Cys cyclised on the TATA scaffold; ValCit-MMAE (MMAE-PABC-Cit-Val-glutarate) on the N-terminal amine
B3: no binding (tested: 5 µM) (Human EphA3 Fc fusion); no binding (tested: 5 µM) (Human EphA1 Fc fusion); no binding (tested: 20 µM) (Mouse EphA3 Fc fusion). B3: no binding (tested: 20 µM) (Rat EphB1 Fc fusion); no binding (tested: 20 µM) (Mouse EphA4 Fc fusion).

B4: BCY6082 (peptide)
peptide: AXDCPLVNPLCLHPGWTC
modifications: not fully specified; N-terminal (β-Ala)-Sar10 spacer precedes SEQ ID NO: 11; HArg (homoarginine) at residue 2 of SEQ ID NO: 11; three Cys cyclised on the TATA scaffold; DM1-SS(SO3H)- (DM1-SO3H-SPDB) on the N-terminal amine
B4: no binding (tested: 5 µM) (Human EphA3 Fc fusion); no binding (tested: 5 µM) (Human EphA1 Fc fusion); no binding (tested: 20 µM) (Mouse EphA3 Fc fusion). B4: no binding (tested: 20 µM) (Rat EphB1 Fc fusion); no binding (tested: 20 µM) (Mouse EphA4 Fc fusion).

Reference: patent US20240000957A1 (published 2024)
